From article PMC12311729, “Probing the Mechanism of L‑DOPA 2,3-Dioxygenase Using Synthetic Derivatives of 3,4-Dihydroxyhydrocinnamic Acid” (ACS Omega, 2025) come the findings set out here.

The subject of series [1] is O=C(O)CCc1cc(O)c(O)cc1Br. Nature of the series: UV-visible steady-state assay of L-DOPA 2,3-dioxygenase (ShjDDO). It counts as biochemical, Streptomyces hygroscopicus jingganensis. Particulars: other: S. hygroscopicus jingganensis enzyme. Here is the method:
(§1) Purified, reconstituted L-DOPA 2,3-dioxygenases were assessed for activity by monitoring the cleavage of catecholic substrates using UV–visible spectroscopy. 3,4-Dihydroxyhydrocinnamic acid (DHHCA, 3) was purchased from Sigma-Aldrich. 6-CyanoDHHCA (5) and 6-bromoDHHCA (4) were synthesized as described above.
(§2) Molecular oxygen (AirGas) was bubbled directly into the reaction buffer through a glass-bonded silica gas diffuser (Bubblemac Industries, Inc.) or as a gas mixture blended with air (AirGas). Solutions were bubbled with oxygen for several minutes prior to use and for the duration of the experiment. To determine the K M for oxygen (i.e., K MO2), L-DOPA 2,3-dioxygenases (0.25–4.0 μM) were reacted with a saturating concentration of the catecholic substrate DHHCA/6-X-DHHCA derivatives (2–10× the K M sufficient to achieve k cat) and various oxygen concentrations (21–100% or 270–1300 μM at 22 °C). The concentration of oxygen was varied by changing the percentage of oxygen in the blend using a galvanic oxygen sensor and oxygen monitor (AirGas) and then bubbling solutions, as described above. Molecular oxygen percentages were converted to molar concentrations using a reference temperature of 22 °C. The reaction of L-DOPA 2,3-dioxygenases with DHHCA/6-X-DHHCA derivatives as a function of oxygen concentration was followed by the appearance of the steady-state cleavage product by using UV–visible spectroscopy.
(§3) The extinction coefficients for steady-state cleavage products of DHHCA and synthetic 6-X-DHHCA derivatives were determined by reacting various concentrations of DHHCA/6-X-DHHCA derivatives at 22 °C with a 10-fold stoichiometric excess of enzyme (quantified by Fe^II–see Reconstitution) in 50 mM HEPES buffer with 154 mM NaCl at pH 7.5, bubbled with 100% oxygen to a final concentration of 780–910 μM, depending on the volume of oxygenated buffer that comprised the reaction (60–70%). Substrate solutions were prepared from authentic synthetic standards using an analytical balance, and reactions were run to completion as assessed by the appearance of the steady-state product. The λmax and extinction coefficients of DHHCA, 6-cyanoDHHCA, and 6-bromoDHHCA were determined herein as ε380 = 40 740 ± 820 M^–1cm^–1, ε385 = 33 256 ± 484 M^–1cm^–1, and ε380 = 35 282 ± 1190 M^–1cm^–1, respectively (Figure S52).
(§4) Steady-state kinetic data were obtained through a UV–visible spectroscopic assay. Initial rates were obtained from the slopes of the linear regions of the progress curves and plotted versus substrate concentration to yield a hyperbola, which was analyzed using the Michaelis–Menten expression and nonlinear least-squares fitting (NLSF) with Origin 6.0 (Microcal). Two possible derivations of the Michaelis–Menten expression were used: 1) the traditional expression y = k cat × x/(K M + x), where y is Rate/E 0 or the rate of product formation (μM/min) divided by the starting enzyme concentration (μM), x is substrate concentration (μM) and k SP (also known as k cat × K M ^–1)–that is, the second-order rate constant of enzyme and substrate–is extracted from the fitted constants; or 2) the alternative derivation that extracts k SP and k cat directly from the fit: y = (k SP × x)/((1 + k SP × x)/k cat), and where y is Rate/E 0 or the rate of product formation (μM/min) divided by the starting enzyme concentration (μM), x is substrate concentration (μM), k SP is equivalent to k cat×K M ^–1, and K M is extracted from k cat/k cat×K M ^–1.

Series [2] has as its system N#Cc1cc(O)c(O)cc1CCC(=O)O. The series is described as above. It is filed as biochemical, Streptomyces hygroscopicus jingganensis. Particulars: other: S. hygroscopicus jingganensis enzyme. The method, then: as §1, §2, §3, §4
For series [3], the system named is O=C(O)CCc1ccc(O)c(O)c1. The series is described as above. It counts as biochemical, Streptomyces hygroscopicus jingganensis. The conditions noted are these: other: S. hygroscopicus jingganensis enzyme. The method, then: as §1, §2, §3, §4
Substrate in series [4]: O=C(O)CCc1ccc(O)c(O)c1
As to the kind of experiment: UV-visible steady-state assay of L-DOPA 2,3-dioxygenase (LmbB1). It counts as biochemical, Streptomyces lincolnensis. Particulars: other: S. lincolnensis enzyme, pH 7.5, 22 °C. The method, then: as §1
as §2, with “Molecular oxygen percentages were converted to molar concentrations using a reference temperature of 22 °C. The reaction of L-DOPA 2,3-dioxygenases with DHHCA/6-X-DHHCA derivatives as a function of oxygen concentration was followed by the appearance of the steady-state cleavage product by using UV–visible spectroscopy.” left out
as §3, with “S52). […]” for “S52).”

Substrate in series [5]: N#Cc1cc(O)c(O)cc1CCC(=O)O
The description is as above. It is filed as biochemical, Streptomyces lincolnensis. The conditions noted are these: other: S. lincolnensis enzyme, pH 7.5, 22 °C. The method, then:
as §1
as §2, with “Molecular oxygen percentages were converted to molar concentrations using a reference temperature of 22 °C. The reaction of L-DOPA 2,3-dioxygenases with DHHCA/6-X-DHHCA derivatives as a function of oxygen concentration was followed by the appearance of the steady-state cleavage product by using UV–visible spectroscopy.” left out
as §3, with “S52). […]” for “S52).”

Substrate in series [6]: O=C(O)CCc1cc(O)c(O)cc1Br
Described as above. It is filed as biochemical, Streptomyces lincolnensis. Particulars: other: S. lincolnensis enzyme, pH 7.5, 22 °C. Here is the method: as §1
as §2, with “Molecular oxygen percentages were converted to molar concentrations using a reference temperature of 22 °C. The reaction of L-DOPA 2,3-dioxygenases with DHHCA/6-X-DHHCA derivatives as a function of oxygen concentration was followed by the appearance of the steady-state cleavage product by using UV–visible spectroscopy.” left out
as §3, with “S52). […]” for “S52).”

The mark [7] stands for this setting: saturating catecholic substrate, 22 °C, pH 7.5.

For the molecule “L-DOPA 2,3-dioxygenase from S. hygroscopicus jingganensis (ShjDDO) (Streptomyces hygroscopicus subsp. jinggangensis 5008)”, the Michaelis constant (Km) came to 926 ± 169 µM in series [1] (pH 7.5, 22 °C); 759 ± 66 µM in series [1] (setting [7]); 228 ± 53 µM in series [2] (pH 7.5, 22 °C); 1019 ± 236 µM in series [2] (setting [7]); 422 ± 94 µM in series [3] (pH 7.5, 22 °C); 1059 ± 246 µM in series [3] (setting [7]).

B1: L-DOPA 2,3-dioxygenase from S. lincolnensis (LmbB1) (Streptomyces lincolnensis) (protein)
chain: MPSVKSMPPVSVHHVGVQTADLDNSISWYQEFFGCTVSWTLDTFSALTHSRLPGIERLAELRYGDVRFHHIGVKSGAAERSPAEANQFQHVCFAVGSPTELEAWRSRWLELYARGRWTFAVPERATDIDVDKDGVRSFYALDPNGLEYEFTYVPDGPR
For B1, the Km in series [4] is 922 ± 152 µM; in series [5], 131 ± 16 µM; in series [6] it was 205 ± 24 µM.

In general, Km refers to the concentration of substrate that gives half-maximal velocity.
